Measurements from US20170275344A1, “POLYPEPTIDES AND USES THEREOF AS A DRUG FOR TREATMENT OF AUTOIMMUNE DISORDERS” (Compugen Ltd., priority 2014, published 2017).

Key:
[1] = test system: SJL mice; experiment: PLP139-151/CFA R-EAE with Treg inactivation by anti-CD25; format: in vivo, mouse
Description: In two studies, EAE was induced in SJL mice via PLP139-151/CFA priming as described under Methods, below. The mice were divided into 4 and 8 groups in Study I and Study II, respectively groups (n=10/treatment group). In both studies, groups 1-4 the mice received two injections separated by one day, of either Control Ab or anti-CD25 (clone 7D4 at 500 μg/injection i.p. (BioXCell Cat# BE0013; West Lebanon, N.H.)) starting at the onset of disease remission (Day +19 and 21 in Study I or Day +20 and 22 in Study II), followed by treatment with either mIgG2a Control Ig or C1ORF32 ECD-Fc (100 ug/dose; 3×/wk; 2 wks) beginning on the day of the second treatment with anti CD25 (Day 21 in study I and day 22 in study II).
To study the importance of Treg function for maintenance of tolerance by C1ORF32 ECD-Fc a second set of mice was set in study II, groups 5-8, in which mice were treated with Control Ig or C1ORF32 ECD-Fc (SEQ ID NO:42) first in a similar regimen as groups 1-4 (beginning on Day +22), and then two weeks following the last C1ORF32 ECD-Fc (SEQ ID NO:42) treatment, on days 46 and 48, mice received either Control Ab or anti-CD25 (500 μg/injection) to inactivate the Treg cells. The mice were followed for the level of disease severity.
Study I Treatment Groups (n=10 Mice Per Group) 1. Control Ab (Day +19 and 21) plus Control Ig (100 ug/dose; 3×/wk; 2 wks; beginning on Day +21) 2. Anti-CD25 Ab (Day +19 and 21) plus Control Ig (100 ug/dose; 3×/wk; 2 wks; beginning on Day +21) 3. Control Ab (Day +19 and 21) plus C1ORF ECD-Fc (SEQ ID NO:42) (100 ug/dose; 3×/wk; 2 wks; beginning on Day +21) 4. Anti-CD25 Ab (Day +19 and 21) plus C1ORF ECD-Fc (SEQ ID NO:42) (100 ug/dose; 3×/wk; 2 wks; beginning on Day +21) Study II Treatment Groups (n=10 Mice Per Group) 1. Control Ab (Day +20 and 22) plus Control Ig (100 ug/dose; 3×/wk; 2 wks; beginning on Day +22) 2. Anti-CD25 Ab (Day +20 and 22) plus Control Ig (100 ug/dose; 3×/wk; 2 wks; beginning on Day +22) 3. Control Ab (Day +20 and 22) plus C1ORF32 ECD-Fc (SEQ ID NO:42) (100 ug/dose; 3×/wk; 2 wks; beginning on Day +22) 4. Anti-CD25 Ab (Day +20 and 22) plus C1ORF32 ECD-Fc (SEQ ID NO:42) (100 ug/dose; 3×/wk; 2 wks; beginning on Day +22) 5. Control Ig (100 ug/dose; 3×/wk; 2 wks; beginning on Day +22) plus Control Ab (Day +46 and 48) 6. […]
SJL mice were primed with 50 μg PLP139-151/CFA to induce R-EAE, and followed for disease through the acute phase of disease and into disease remission. […] Clinical results are expressed as the mean clinical score.
Mice were followed for disease and scored on a 0-5 scale per standard lab protocol as follows: 0, no abnormality; 1, limp tail; 2, limp tail and hind limb weakness; 3, hind limb paralysis; 4, hind limb paralysis and forelimb weakness; and 5, moribund.

[2] = test system: total splenocytes and lymph node cells; experiment: Ex vivo recall responses in adoptive transfer R-EAE; format: cell-based, mouse
Description: On day 45 (unless otherwise indicated) following cell transfer, spleen and cervical lymph nodes or CNS from 3 representative mice of each group were collected, and the total cells were activated ex vivo at 0.5×10^6 cells per well with either OVA323-339, PLP139-151, PLP178-191, MBP84-104 (20 ug/ml), or anti-CD3 (1 ug/ml). Two sets of cultures were set up side-by-side. One set was pulsed with 1 uCi of tritiated thymidine at 24 hours and harvested at 72 hours to determine cell proliferation. In the second set of cultures, supernatants were collected at 72 hours and tested for peptide-specific cytokine production as determined by LiquiChip.

B1: C1ORF32 ECD-Fc (SEQ ID NO:42): fusion protein of human C1ORF32 ECD fused to mouse immunoglobulin Fc (human-mouse fusion protein) (protein)
chain: LQVTVPDKKKVAMLFQPTVLRCHFSTSSHQPAVVQWKFKSYCQDRMGESLGMSSTRAQSLSKRNLEWDPYLDCLDSRRTVRVVASKQGSTVTLGDFYRGREITIVHDADLQIGKLMWGDSGLYYCIITTPDDLEGKNEDSVELLVLGRTGLLADLLPSFAVEIMGSENLYFQGSGEPRGPTIKPCPPCKCPAPNLLGGPSVFIFPPKIKDVLMISLSPIVTCVVVDVSEDDPDVQISWFVNNVEVHTAQTQTHREDYNSTLRVVSALPIQHQDWMSGKEFKCKVNNKDLPAPIERTISKPKGSVRAPQVYVLPPPEEEMTKKQVTLTCMVTDFMPEDIYVEWTNNGKTELNYKNTEPVLDSDGSYFMYSKLRVEKKNWVERNSYSCSVVHEGLHNHHTTKSFSRTPGK
modifications: Fusion protein human C1ORF32-ECD fused to mouse IgG2a Fc
relapsing EAE disease ([1]; Study I, Control Ab, 100 ug/dose 3x/wk 2 wks from Day +21): abrogated | disease severity ([1]; Study I, treatment starting after anti-CD25 (Day +19 and 21), vs anti CD25 + control Ig): significant decrease in disease severity | disease symptoms ([1]; Study II, anti-CD25 on days 20 and 22, before treatment from day 22): completely inhibited diseases symptoms | disease course after late Treg inactivation ([1]; Study II, anti-CD25 on days 46 and 48, 2 weeks after completion of treatment): immediate relapse which was alleviated as the effect of anti-CD25 dropped off | recall responses of CNS cells to PLP139-151 and anti CD3 ([2]; day 10, treatment from time of cell transfer): abolished | GM-CSF secretion ([2]; day 45, activation with PLP139-151 and PLP178-191): inhibition of GM-CSF secretion | IFN-gamma and IL-17 secretion ([2]; day 45, activation with anti-CD3, PLP139-151, and PLP178-191): inhibition | splenocyte secretion of IL-4 and IL-10 ([2]; day 45, in response to PLP139-151): increased splenocyte secretion | recall responses: cellular proliferation of splenocytes and lymph node cells ([2]; day 45, treatment from onset of remission): decreased level of cellular proliferation
